These are literature values, as cited in article PMC4474783.

Data set [1] has as its target calnexin (Homo sapiens) (UniProt P27824).
Data set [2] deals with calreticulin (Homo sapiens) (UniProt P27797).
The target in data set [3] is calreticulin 189-288 (Homo sapiens) (UniProt P27797).
Data set [4] has as its target calnexin P-domain (Homo sapiens) (UniProt P27824). Put plainly: ITC.

Turning to CypB (from UniProt P23284), the Kd in data set [1] and in data set [2] was 10 µM in each case.

For the substance ERp57 (from UniProt P30101), the Kd was 9 µM in data set [3] and 26 µM in data set [4].
